In publication PMC2809091, “Dissociation of the Octameric Enolase from S. Pyogenes - One Interface Stabilizes Another” (PLoS ONE, 2010):

Target: the molecule itself
Assay: AUC; sedimentation velocity, 35,000 rpm, 15°C; 2.7 µM enolase (subunits) in TME buffer (50 mM Tris/HCl, 1 mM Mg(OAc)2, 0.1 mM EDTA, pH 7.4) without NaClO4; c(s) analysis (SEDFIT), mass also from DLS radius and DCDT+; octamer

B1: wild type octameric enolase from S. pyogenes (enzyme, UniProt P69949 1-435, looked up)
chain: MSIITDVYAREVLDSRGNPTLEVEVYTESGAFGRGMVPSGASTGEHEAVELRDGDKSRYLGLGTQKAVDNVNNIIAEAIIGYDVRDQQAIDRAMIALDGTPNKGKLGANAILGVSIAVARAAADYLEVPLYTYLGGFNTKVLPTPMMNIINGGSHSDAPIAFQEFMIMPVGAPTFKEGLRWGAEVFHALKKILKERGLVTAVGDEGGFAPKFEGTEDGVETILKAIEAAGYEAGENGIMIGFDCASSEFYDKERKVYDYTKFEGEGAAVRTSAEQVDYLEELVNKYPIITIEDGMDENDWDGWKVLTERLGKRVQLVGDDFFVTNTEYLARGIKENAANSILIKVNQIGTLTETFEAIEMAKEAGYTAVVSHRSGETEDSTIADIAVATNAGQIKTGSLSRTDRIAKYNQLLRIEDQLGEVAQYKGIKSFYNLKK
notes: enolase (EC 4.2.1.11) of Streptococcus pyogenes; no removal of the His tag is described; also called wild type enolase; wild type enzyme; source: E. coli BL21(DE3), pET-14b, purified (Ni-NTA, dialysis, (NH4)2SO4 precipitation)
  stoichiometry N: 8
